# Measurements taken from US20030049649, “Targeted modification of chromatin structure” (published 2003).
# T1: Veg1 (unfused three-finger ZFP) (Artificial (human SP1 backbone), UniProt P08047 SEQ:1-99)
# T1 chain: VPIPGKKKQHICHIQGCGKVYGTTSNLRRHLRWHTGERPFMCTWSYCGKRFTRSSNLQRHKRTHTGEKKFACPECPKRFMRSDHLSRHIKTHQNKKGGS
# Molecular target: T1, Veg1 (unfused three-finger ZFP)
# Assay: EMSA; apparent Kd (half-maximal binding), 100 mM KCl, 1 mM MgCl2, 100 uM ZnCl2, room temperature; not corrected for purity
# Settings: tags: none, expressed in E. coli BL21/DE3 from pET15b, >50% pure; label: 5' 32P top strand
# Method: Assays for binding of Veg1 to the target oligonucleotide (above) were performed by titrating protein against a fixed amount of duplex target. Binding reactions contained 50 pM 5′ ³²P labeled double stranded target DNA, 10 mM Tris-HCl (pH 7.5), 100 mM KCl, 1 mM MgCl₂, 1 mM dithiothreitol, 10% glycerol, 200 μg/ml bovine serum albumin, 0.02% NP-40, 20 μg/ml poly dI-dC (optionally), and 100 μM ZnCl₂, in a final volume of 20 μl. Protein was added to the binding reaction as one-fifth volume from a dilution series made in 200 mM NaCl, 20 mM Tris (pH 7.5), 1 mM DTT. Binding was allowed to proceed for 45 min at room temperature. Polyacrylamide gel electrophoresis was carried out at room temperature using precast 10% or 10-20% Tris-HCl gels (BioRad, Hercules, Calif.) and Tris-Glycine running buffer (25 mM Tris-HCl, 192 mM glycine, pH 8.3) containing 0.1 mM ZnCl₂. Radioactive signals were quantitated with a Phosphorimager.
# Shifted product, indicative of labeled target with bound protein, is indicated by an arrow in FIG. 2A. The amount of shifted product was determined at each protein concentration and quantitated on a Phosphorimager (Molecular Dynamics). The relative signal (percent of maximal amount of shifted product) was plotted as a function of log₁₀ protein concentration. […]
binder,measurement,value
Veg1 29-mer target duplex (dsDNA) DNA 1: CATGCATAGCGGGGAGGATCGCCATCGAT DNA 2: ATCGATGGCGATCCTCCCCGCTATGCATG,Kd,~50 nM
